Data on one substance can be found in patent publication US20040259779A1.

Assay [1] addresses combination of receptor ALK7 and receptor ActRIIB. The experiment in a line: cell-based or functional assay.
Assay [2] deals with combination of receptor ALK4 and receptor ActRIIB. The experiment in a line: cell-based or functional assay.

Regarding “Neuronal Survival and Growth Factor 3 (NSG3) (ligand)”, in assay [1], the luciferase activity of the Smad3-specific pCAGA-luc reporter in HepG2 cells co-expressing ALK7, ActRIIB and NsG-3 (basal without NsG-3 approx. 9) (arbitrary units) was 33. Further, the luciferase activity of the Smad3-specific pCAGA-luc reporter in HepG2 cells co-expressing ALK4, ActRIIB and NsG-3 (basal without NsG-3 approx. 2) (arbitrary units) in assay [2] was determined as 7.
